Data reported in a protein production outcome set (Wang et al. 2014).
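Note: failed if final PepcDB status was selected cloned or expressed and not failed if soluble or beyond.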

Test: label from the status in PepcDB records
With “MIYQPDENRYHTMEYRRCGRSGVKLPAISLGLWHNFGDTTRVENSRALLQRAFDLGITHFDLANNYGPPPGSAECNFGRILQEDFLPWRDELIISTKAGYTMWDGPYGDWGSRKYLIASLDQSLKRMGLEYVDIFYHHRPDPETPLKETMKALDHLVRHGKALYVGISNYPADLARQAIDILEDLGTPCLIHQPKYSLFERWVEDGLLALLQEKGVGSIAFSPLAGGQLTDRYLNGIPEDSRAASGSRFLKPEQITADKLEKVRRLNELAARRGQKLSQMALAWVLRNDNVTSVLIGASKPSQIEDAVGMLANRRFSAAECAEIDAILEGRF” the protein production was “failed”. With “MKAALHNLGCKVNSYETEAMEQMLIAAGYEIVPFCEDEKADVYVINTCSVTNIADRKSRQMLHKAKKQNPNAIVVAAGCYVQARGDELAADDMVDIVIGNNRKNRLVEIINDYIGNNSNNEAVVDIAKTHEYEELNIYDVCEHTRAYIKVQDGCNQFCSYCIIPYTRGRVRSRRPEDVTAEVRRLVEKGYKEFILAGIHLSSYGIDFEAPCDEAVDYRAANMPGSRLLELIEAVCSVEGVKRLRLGSFEPRILTEAFVKRMAELEPVCPHFHISLQSGCDATLKRMNRRYTADEYEESCKLLRKYFPNAAITTDVIVGFPQETDEEFAITKEYLERIHFYEMHVFKYSRRKGTAADRMDGQVPEPVKTARSAGLLELEKRMSREYRESALGSIQEVLFEEVAGTCDDCGTSVITGHTKTYINVHVKLPADMSLEYINKICNVKLEHLSDDGEWVNGTLCG” the protein production was “failed”. In the case of “MKAALWMAGWLALMVIVAVAGRETLRELSVFQVMELRSVIGFAMLYPLIHKFGGLTAMATARPLAHLSRNLVHYAAQLGWFYALTLISIGQVVSIEFTMPIWIAILAATFLGEHMNVWKITAVVLGLIGVVVIVRPATSSIEPGQLIALGAAVGFGISVTLMKSLTRTESTLAIIFWMLLIQSAAGLVPALWLWQWPSAYVWVWIVIIAFCGTFSHYCMARALTYADATIVVPMDFLRVPLSATAGWLIYGERLDAYTVIGAALILIGNLLNLRGAPRPPAAASIRNSP”, the protein production is reported as “failed”. In the case of “MKAEKNLNKTLKISYKALFFSFALTLIKLLAGFLGNSTALIADSIRSFSELINELKKLLEVFIASKPEDWSHNYGHGKVATLFTGAGACILLFAGIESISLASQELLIFIQGRETEAPEILALSAASLTLVSREIIPLFSSKGKEIEGTLSGTGIYTRNAQIRSLLLSCFVTLGIGCTFLPGKNWVVTDSFIAALMSLYLLGTSGKLLYGTANELIEASLDEEDNKKIRKIINTTEGVTGSGELKTRKIGNGIAINACITVSDSLNIQEVAEIADRVENRLKTVYGEDIYALVKAEPDPGRNCSFRKKMEFSEEGRKENKGINTQDKMLA”, the protein production is reported as “failed”. In the case of “MKAIIMAGGEGSRLRPLTCKRPKPLVPVANRPVMEYCVDLLRELGIKEVGVTLQYLPQLIEEYFGDGSDFGLHLHYFVEDKPLGTAGSVKNAAAILDETFVVVSGDALTDFDLRPAIARHKESGALATLVLTAVDNPLEYGVVITNPDGSIRSFLEKPSWGEVFSDRVNTGIYILEPEVLELIPEGRPFDFSKDLFPRLLKEKRPLYGVTLSGYWCDIGNLTQYRQAQEDILRGRVKVRVVGQDKGGGVVMGEGVEIAPGARIEGPVLIGGACHIATGAVVGPFTVLGPYTRVEEGATVRRSVLWDNVYTGEGANVRGAVVCSRASLQRRVQVYEGAVIGDGTQVDAGAEVRPEVKVWPEKTLGRETVVHESLIWGRGVARPLFVGSQAPGYLHGDLTPFQVTRLGMAYGASFPPGTTVGLSTFAGGAGEMLYKALAAGLMAAGVQVADLGRLLTPIHRFAVRSLGLDGGCHIKRDAAERDKVWLHLVNSRGHDLNPAAVRKIENLYWREDGRRVQEVPASIYFPGLEGAYRDWLLATLGDHGLKKRALRVALGGQGQVAGVAGTILQDAGAEVIRLDLDPAKTWQAVQEDLPYFAGEIRRYGADLGAALDSNGEELILFTGEGRRVAPAQQMTLLARVYLETHRGASLVLPVTAPRVLEQVAGGLHGRVERVKGHPGIYHEAMARADGETALGQQHLQLDALAALVHILDWLASREESLDSAVAALPPVYTASRTVACPWEAKGRVMRTLISEEPADGVELLDGVQVRHGKGWSLVLPDGETPHYHIYSEAFSQEAAEELAGFYEERLKELIAREKSKGR”, the protein production is reported as “failed”. With “MKAIITVVGKDKSGIVAGVSGKIAELGLNIDDISQTVLDEYFTMMAVVSSDEKQDFTYLRNEFEAFGQTLNVKINIQSAAIFEAMYNI” the protein production was “not failed”. With “MKAILRASRIGRVILRYRLDALLEGTPAERWLRLAKPFVPRASAEIAAQSRGARLRLALQELGPIFVKFGQILSTRRDLIPADVAEELTLLQDRVKPFDGQAARLIVEAALGLPVSVAFASFDTVPLASASIAQVHAATLPPDANGVRREVVVKVLRPEIERQIDADIALLHSLATLVERTHPRADKIRPREVVAEIEGTLAAELDLQREGANASVLRRFWEGSDDLYVPEVIWSHTAERALTLERVYGIPSDDIAKLDAAGIDRKALAAKGVRVFYTQVFRDNFFHADAHAGNIWVDSDPERRLNPRFIALDFGIMGQLSQEDQYYLAENFMAIFHKDYRRMAELHVEAGWMPSNVRIDELEAAARSVCEPYFNRPLSEISLAQVLIKLFRVAQRYELTLQPQLILLQKTLLNIEGVGRQLDPRLDIWAVARPVLERILRERYSPRRVLRELSKRLPEIMTHAPDMPRLVYSWLTQQVEGRHQIAIRSPELLALDLSLRKLQTRVVTAITGSGLLVVAAVLYGLHPDGWYLGTVPVWSWISGGAGSAALLVAWLRR” the protein production was “failed”. In the case of “MKAKIYYNGNIITMEDSICGDAILIKDKIIKKIGTKEEVFALKNKDTEIIDLQGKTLMPSFIDSHSHLIAFATTLKLVPLEDATSFKDIVKKIQDFKESLEHHHHHH”, the protein production is reported as “failed”. In the case of “MKAKPLSQDPGSKRYAYRINKEENRKELKHVKINESSLVQEGQKIDLPKKRYYRQRAHSNPFSDHQLEYPVSPQDMDWSKLYPYYKNAENGQMTKKVTIADIGCGFGGLMIDLSPAFPEDLILGMEIRVQVTNYVEDRIIALRNNTASKHGFQNINVLRGNAMKFLPNFFEKGQLSKMFFCFPDPHFKQRKHKARIITNTLLSEYAYVLKEGGVVYTITDVKDLHEWMVKHLEEHPLFERLSKEWEENDECVKIMRNATEEGKKVERKKGDKFVACFTRLPTPAIL”, the protein production is reported as “failed”. For “MKAKSLMVVGTTSHAGKSLLAAVICRWLAQQGYRVTPFKGQNMALNAYVTREGGEIGYAQAMQAWAAGIEPEVAMNPILLKPQGNMTSQVILRGQVVGVTRAADYYRDYFERGWQAITEALADLQQRFDWIVCEGAGSPAEINLKHRDLTNMRVATYLGAPTILVADIDRGGVFAHIVGTLMLLEPAERALIQGIVINKFRGQRSLLDSGLQWLEETTGVPVLGVIPWLERHYAAEDSLDLWDPRPQRQGADLKITVIRLPRIANFTDIDPLLAEPSVAVEFLPPHRPLGRPDAVILPGTKTTIADLQVLRETGMAEQLKTYAAQGGTILGICGGWQMLGTAISDPLGLEGCPGTYEGLGLMPLHTQLGPTKCTQQQQTQSLYFNCPEPILGYEIHQGQSEYTGDRQGWHPLFAAPELGLVNRAGTLWGTYLHGLLENGPWRRHWLNGLRSRRQLPPLPTAIPHYGEQRTVALDELTKTVMAHLNLRGICKLC”, the protein production was “failed”. In the case of “MKALHFGAGNIGRGFIGKLLADAGIQLTFADVNQVVLDALNARHSYQVHVVGETEQVDTVSGVNAVSSIGDDVVDLIAQVDLVTTAVGPVVLERIAPAIAKGLVKRKEQGNESPLNIIACENMVRGTTQLKGHVMNALPEDAKAWVEEHVGFVDSAVDRIVPPSASATNDPLEVTVETFSEWIVDKTQFKGALPNIPGMELTDNLMAFVERKLFTLNTGHAITAYLGKLAGHQTIRDAILDEKIRAVVKGAMEESGAVLIKRYGFDADKHAAYIQKILGRFENPYLKDDVERVGRQPLRKLSAGDRLIKPLLGTLEYSLPHKNLIQGIAGAMHFRSEDDPQAQELAALIADKGPQAALAQISGLDANSEVVSEAVTAYKAMQ”, the protein production is reported as “not failed”. For “MKALSPVRGCYEAVCCLSERSLAIARGRGKGPAAEEPLSLLDDMNHCYSRLRELVPGVPRGTQLSQVEILQRVIDYILDLQVVLAEPAPGPPDGPHLPIQTAELAPELVISNDKRSFCH”, the protein production was “failed”. In the case of “MKARLLIVVAVLALTACATTTSPTGRRQVVGGVSQQQLDQLGAQSFAQTKAKEKVSTDGKQNAYVQCVVNALVAQLPPQWRETKWETALFVDNEANAFALPGGKVGVNTGIFTVAKTQDQLAAVLGHEIGHVISRHHEERITRQLGAQTGLGIIGALAGAAYGDGAASAVNQVGGMTAQTVFLLPGSRTQESEADVVGQRLMAQAGFDPAQAVTLWQNMMAASGNRQPQWLSTHPDPANRIRELQADVAQLEPVYQQAKQSGRAPRCG”, the protein production is reported as “failed”. For “MKATLFVREFLLNPRTIGAILPSSDYLAEKMMASVCFEQAKYIIEYGPGTGVFTDKILRYRHPDTVVMIIEHNREFFCILNEKYQDEKNVIIINGSAEHIETYVKEHNIPFVDYIISGLPFASLPLHVSNAILNKARYLLGVKGKFITFQYTQTKVRLFTQFFNQMTVERVYRNLPPAFVFSCYNEKLEHHHHHH”, the protein production was “not failed”. For “MKAVANRYYVLCQEKVFIRSLLSGFFLLFISFLIMNFAGKYASLMAGNPVNDLILDNLPLRDVTLFHVNAAIIFWTIFTIYTLLNPAFIPFITKSAALFILIRCAFISMTHLGAPPNQLSIPDNFSSLVLFDGDLFFSGHVGGPFLMMLIFWNKTTLRYICLAAAVFFAYTVLIGHIHYSIDVFAAPFITYGIFHIGQFLFASDYQRLKSELTSSTGN”, the protein production was “failed”. For “MKAVILAAGRGSRLQALTDERPKALVPFNGVPLLQRAIETLRRCDVSEVGIVAGYRSEMLAPFADTLFYNHRWHSSGIFSSLNCASDWLSAEPCLVSYGDIFYDSTLVSELINHPADIVLGYDPAAVRLWQQRFNDPLPDLENFRLVDGWVSAIGQTATSLEVIQGQYMGLFKVTPAGWQALKKQLQGLTPQARDQTDMTSLLGTLVSEGFPVAGVATHAPWGEIDCPSDVALYERIYPDRLEHHHHHH”, the protein production was “failed”. With “MKAVLFDLDGTLIDTAADFIRIIQEMCREEQREVVDADLIRTQVSEGARAMVKLVYPELAVDDAVFLTHRQRFLDRYEQNIVVDTDLFKGMYPLLEMLESQQIPWGIVTNKPRHLTELLLERLNLTERCAVLVCPEDVQRTKPDPEPMFLAATQLHIAPEQIIYVGDHPRDIDAGRAAHMYTILAAYGYLPLQHKDNLNAWQADVIVQHVTELQKILSQQLHITPLNQDTMLQTS” the protein production was “failed”. With “MKAVRVHILGSGGREHAIGWAFAKQGYEVHFYPGNAGTKRDGTNHPYEGEKTLKAIPEEDIVIPGSEEFLVEGVSNWRSNVFGPVKEVARLEGSKVYAKRFMKKYGIRTARFEVAETPEELREKIKKFSPPYVIKADGLARGKGVLILDSKEETIEKGSKLIIGELIKGVKGPVVIDEFLAGNELSAMAVVNGRNFVILPFVRDYKRLMDGDRGPNTGGMGSWGPVEIPSDTIKKIEELFDKTLWGVEKEGYAYRGFLYLGLMLHDGDPYILEYNVRLGDPETEVIVTLNPEGFVNAVLEGYRGGKMEPVEPRGFAVDVVLAARGYPDAPEKGKEITLPEEGLIFFAGVAEKDGKLVTNGGRVLHCMGTGETKEEARRKAYELAEKVHFEGKTYRRDIAL” the protein production was “not failed”. In the case of “MKDCCGGYESEELLMDFSGKDKAAYVQDTFNSIAKRYDVMNTLMSFGLDKGWRKKAVQTVEAKPGMTMVDICCGTAQLSLELAMTVGEQGQITGLDFSENMLKKAQENLAGSPYRSIIELRQGDAMNLPFADNSFDGATVGWGLRNLPDLEKGVQEMIRVVKPGGMVVSLDMAKPTMPGFKQGYWLYFNKLVPLMGKIWAGKAKAYQYLHDSAVEFPSQQELANIFARCGLTETRYQNLAGGVVAIVSGRKPR”, the protein production is reported as “failed”. In the case of “MKDFWTWERLSFHMVLAYNDDRSFLINTGMPLDLTLRNQEMKKFAGDRAIFRSEDSIEMLRKAGFTPDDIDYVALTPVQDYTIGRLNEFRKSKIFIFRDGWIKDIAAPAYAYFHNRDLFIPKNIFDFVYGEGWKNIIFYDGETELVPGIRAIPVGCHHRSSVAFAINAKDGTYVFTDASFKAENVRNRIPIGIAENIYECLSAYEKIEKIGKLLPAYDPAIDDLYIKLEHHHHHH”, the protein production is reported as “not failed”.
